Measurements taken from article PMC7901972.

Target: thrombin

Substance: recombinant AsKunitz (natural protein)
- inhibition of the enzymatic activity of thrombin on a chromogenic substrate (Vmax against the reaction without inhibitor), IC50: 650 nM
